The values that follow come from the FLAb antibody collection (doi:10.7554/elife.23156).

B1: scFv; the commonest letter at each place (parent)
chain 1: EVKLDETGGGLVQPGRPMKLSCVASGFTFSDYWMNWVRQSPEKGLEWVAQIRNKPYNYETYYSDSVKGRFTISRDDSKSSVYLQMNNLRVEDMGIYYCTGSYYGMDYWGQGTSVTVS
chain 2: DVVMTQTPLSLPVSLGDQASISCRSSQSLVHSNGNTYLRWYLQKPGQSPKVLIYKVSNRFSGVPDRFSGSGSGTDFTLKISRVEAEDLGVYFCSQSTHVPWTFGGGTKLEIK

Variants of B1 are the subject of series [1]. As to the kind of experiment: Kd (Tite-Seq). To be noted: with fluorescein; format: scFv 4-4-20, heavy + light.
In series [2] the parent is B1. As to the kind of experiment: yeast surface expression (ratio to wild type); higher = more expressed. The note with it: format: scFv 4-4-20, heavy + light.

Bounds are passed on as bounds.

For orientation: Kd means the concentration at which binding is half-saturated. On to chain 1 G104Q Y107V, for which the Kd in series [1] is ≥ 10 µM. Further, the yeast surface expression in series [2] came to 0.941.

With chain 1 G100W Y107R, the dissociation constant (Kd) in series [1] is ≥ 10 µM. Besides, the yeast surface expression in series [2] is 0.229.

On to chain 1 G100W Y107Q, for which the Kd in series [1] was ≥ 10 µM. The yeast surface expression in series [2] turned out to be 0.323.

For the variant chain 1 G104M W108V G109T, in series [1], the Kd is ≥ 10 µM. In addition, the yeast surface expression in series [2] was 0.212.

For the variant chain 1 G104F G109W, the Kd in series [1] was ≥ 10 µM. For the same variant, the yeast surface expression in series [2] stood at 0.0981.

For chain 1 G100Y Y107Q, the dissociation constant Kd in series [1] was ≥ 10 µM. Moreover, the yeast surface expression in series [2] worked out at 0.595.

For the variant chain 1 G100Y Y107T, the Kd in series [1] was ≥ 10 µM. Besides, in series [2], the yeast surface expression was determined as 0.388.

For chain 1 G100Y Y107W, the Kd in series [1] is ≥ 10 µM. In addition, in series [2], the yeast surface expression amounted to 0.468.

Take chain 1 G100Y Y107K: the dissociation constant Kd in series [1] was ≥ 10 µM. In addition, the yeast surface expression in series [2] was 0.555.

For the variant chain 1 G104C Y107V, in series [1], the Kd was ≥ 10 µM. Besides, the yeast surface expression in series [2] is 0.461.

Take chain 1 G104C Y107F: in series [1], the Kd is ≥ 10 µM. In series [2], the yeast surface expression worked out at 0.291.

As to chain 1 G100W G104L W108M, the Kd in series [1] was ≥ 10 µM. The yeast surface expression in series [2] was determined as 0.108.

For chain 1 G100S D106E, the Kd in series [1] turned out to be 0.0534 µM. Also, the yeast surface expression in series [2] came out at 1.15.

In the case of chain 1 G100S D106C, the equilibrium dissociation constant (Kd) in series [1] was ≥ 10 µM. The yeast surface expression in series [2] amounted to 1.03.

chain 1 G100V G109Y: the Kd in series [1] is ≥ 10 µM. For the same variant, the yeast surface expression in series [2] came out at 0.271.

For chain 1 G100V G109L, in series [1], the dissociation constant Kd was ≥ 10 µM. The yeast surface expression in series [2] came to 0.256.

On to chain 1 G104F Y107Q, for which the Kd in series [1] is ≥ 10 µM. In addition, the yeast surface expression in series [2] came to 0.401.

chain 1 G109A: the Kd in series [1] stood at 0.0525 µM. The yeast surface expression in series [2] stood at 0.719.

Consider chain 1 G104I D106N G109F, for which the dissociation constant Kd in series [1] turned out to be 0.345 µM. Besides, in series [2], the yeast surface expression came out at 0.094.

For the variant chain 1 G100S G104W, the equilibrium dissociation constant (Kd) in series [1] is ≥ 10 µM. Further, the yeast surface expression in series [2] amounted to 0.425.

Take chain 1 G104L D106G: the Kd in series [1] was ≥ 10 µM. Moreover, the yeast surface expression in series [2] came to 0.169.

In the case of chain 1 G104D M105W, the Kd in series [1] is ≥ 10 µM. Besides, the yeast surface expression in series [2] stood at 0.703.

As to chain 1 G104D M105L, the equilibrium dissociation constant (Kd) in series [1] is ≥ 10 µM. In addition, the yeast surface expression in series [2] stood at 1.07.

For the variant chain 1 G104Y G109T, the equilibrium dissociation constant (Kd) in series [1] was ≥ 10 µM. Also, the yeast surface expression in series [2] is 0.0981.

As to chain 1 G104Y G109R, the Kd in series [1] stood at 0.021 µM. For the same variant, the yeast surface expression in series [2] was determined as 1.08.

Regarding chain 1 G100S Y102K, the Kd in series [1] amounted to 0.0335 µM. Also, in series [2], the yeast surface expression amounted to 0.868.

In the case of chain 1 G100S Y102T, the equilibrium dissociation constant (Kd) in series [1] came to 0.0233 µM. In addition, in series [2], the yeast surface expression is 0.74.

For chain 1 G100S Y102C, in series [1], the dissociation constant Kd was ≥ 10 µM. For the same variant, the yeast surface expression in series [2] is 0.675.

As to chain 1 G104L W108R, the Kd in series [1] was ≥ 10 µM. Further, the yeast surface expression in series [2] came to 0.278.

On to chain 1 G104L W108C, for which the dissociation constant (Kd) in series [1] was ≥ 10 µM. The yeast surface expression in series [2] came out at 0.296.

As to chain 1 G104L W108G, the equilibrium dissociation constant (Kd) in series [1] is ≥ 10 µM. Further, in series [2], the yeast surface expression is 0.178.

On to chain 1 G104D W108T, for which, in series [1], the Kd is ≥ 10 µM. The yeast surface expression in series [2] was 0.417.

As for chain 1 G104D W108Q, the Kd in series [1] is ≥ 10 µM. In series [2], the yeast surface expression was found to be 0.249.

As to chain 1 G104Y W108L, in series [1], the dissociation constant (Kd) was ≥ 10 µM. For the same variant, the yeast surface expression in series [2] was found to be 0.212.

As to chain 1 G104T W108A, the equilibrium dissociation constant (Kd) in series [1] is ≥ 10 µM. In series [2], the yeast surface expression came out at 0.326.

Regarding chain 1 G104T W108F, the equilibrium dissociation constant (Kd) in series [1] is ≥ 10 µM. In series [2], the yeast surface expression is 0.329.

Consider chain 1 G100W Y102S, for which, in series [1], the Kd came out at 0.00606 µM. The yeast surface expression in series [2] was found to be 0.723.

For the variant chain 1 G100W S101P D106M, the dissociation constant Kd in series [1] is ≥ 10 µM. Further, in series [2], the yeast surface expression turned out to be 0.186.

For chain 1 G100V Y103R G104L, in series [1], the Kd was ≥ 10 µM. In series [2], the yeast surface expression came out at 0.88.

Take chain 1 G104N D106W: in series [1], the dissociation constant (Kd) was ≥ 10 µM. In series [2], the yeast surface expression came to 0.316.

On to chain 1 G104E M105V, for which, in series [1], the Kd was ≥ 10 µM. Moreover, the yeast surface expression in series [2] was determined as 0.886.

For chain 1 G104N Y107A, in series [1], the Kd was ≥ 10 µM. In series [2], the yeast surface expression was 0.74.

With chain 1 G104N Y107K, in series [1], the dissociation constant (Kd) is ≥ 10 µM. Further, in series [2], the yeast surface expression is 0.64.

chain 1 G100W Y107D G109L: in series [1], the dissociation constant Kd is ≥ 10 µM. For the same variant, the yeast surface expression in series [2] was determined as 0.227.

As for chain 1 G100W G104I, the Kd in series [1] was ≥ 10 µM. The yeast surface expression in series [2] amounted to 0.359.

Turning to chain 1 G100V Y102P M105N, the Kd in series [1] is ≥ 10 µM. For the same variant, the yeast surface expression in series [2] came to 0.63.

For chain 1 G100Y S101P, the equilibrium dissociation constant (Kd) in series [1] is ≥ 10 µM. In addition, the yeast surface expression in series [2] stood at 0.251.

Take chain 1 G100Y S101E: the Kd in series [1] is ≥ 10 µM. The yeast surface expression in series [2] came out at 0.708.

With chain 1 G100S M105Q D106N, the Kd in series [1] was ≥ 10 µM. The yeast surface expression in series [2] stood at 0.522.

Take chain 1 G104M G109L: the Kd in series [1] was ≥ 10 µM. Further, the yeast surface expression in series [2] is 0.0989.

Consider chain 1 G104V M105E, for which, in series [1], the dissociation constant Kd is ≥ 10 µM. Moreover, the yeast surface expression in series [2] came to 0.637.

Regarding chain 1 G104Q M105C, in series [1], the Kd was ≥ 10 µM. Besides, in series [2], the yeast surface expression came to 0.62.

Take chain 1 G104F W108T: the dissociation constant Kd in series [1] was ≥ 10 µM. In series [2], the yeast surface expression amounted to 0.194.

In the case of chain 1 G104F W108I, in series [1], the Kd is ≥ 10 µM. The yeast surface expression in series [2] was 0.146.

Take chain 1 G104F W108F: the Kd in series [1] was ≥ 10 µM. In series [2], the yeast surface expression stood at 0.387.

Consider chain 1 G104F W108R, for which the Kd in series [1] was 0.02 µM. The yeast surface expression in series [2] worked out at 0.146.

Turning to chain 1 G100S Y107D, in series [1], the Kd is ≥ 10 µM. Besides, in series [2], the yeast surface expression was 0.543.
